{"source": "patent US20170306346", "proteins": {"B1": {"name": "HA-PUB10 (protein)", "chain": "MAGGAITPDSLIGLIAEINEIPGNFGLFKKDCSDLARRVGLLTHLIEEIRDSSPPSESDASSSLNSHECDWWSDLVVGLQAAKRLLSSATSFQARESSDGAAKRISFQFQCVTWKLEKALGDLTYDRYDISDEVREQVELARLQLRRAMQRYGSLNSKKFSSGLSEPMEKDASSNRKVIEKLESIPETVHSLSDEKKFESPPPWKSSSVSLAFFLSKDGDDERLEKAVTENSDDSQKSDNLTIPEDFLCPISLELMKDPAIVSTGQTYERSFIQRWIDCGNLSCPKTQQKLENFTLTPNYVLRSLISQWCTKHNIEQPGGYMNGRTKNSDGSFRDLSGDMSAIRALVCKLSSQSIEDRRTAVSEIRSLSKRSTDNRILIAEAGAIPVLVKLLTSDGDTETQENAVTCILNLSIYEHNKELIMLAGAVTSIVLVLRAGSMEARENAAATLFSLSLADENKIIIGASGAIMALVDLLQYGSVRGKKDAATALFNLCIYQGNKGRAVRAGIVKPLVKMLTDSSSERMADEALTILSVLASNQVAKTAILRANAIPPLIDCLQKDQPRNRENAAAILLCLCKRDTEKLISIGRLGAVVPLMELSRDGTERAKRKANSLLELLRKSSRKLGSL"}, "B2": {"name": "MBP-PUB10-6myc (protein)", "chain": "MAGGAITPDSLIGLIAEINEIPGNFGLFKKDCSDLARRVGLLTHLIEEIRDSSPPSESDASSSLNSHECDWWSDLVVGLQAAKRLLSSATSFQARESSDGAAKRISFQFQCVTWKLEKALGDLTYDRYDISDEVREQVELARLQLRRAMQRYGSLNSKKFSSGLSEPMEKDASSNRKVIEKLESIPETVHSLSDEKKFESPPPWKSSSVSLAFFLSKDGDDERLEKAVTENSDDSQKSDNLTIPEDFLCPISLELMKDPAIVSTGQTYERSFIQRWIDCGNLSCPKTQQKLENFTLTPNYVLRSLISQWCTKHNIEQPGGYMNGRTKNSDGSFRDLSGDMSAIRALVCKLSSQSIEDRRTAVSEIRSLSKRSTDNRILIAEAGAIPVLVKLLTSDGDTETQENAVTCILNLSIYEHNKELIMLAGAVTSIVLVLRAGSMEARENAAATLFSLSLADENKIIIGASGAIMALVDLLQYGSVRGKKDAATALFNLCIYQGNKGRAVRAGIVKPLVKMLTDSSSERMADEALTILSVLASNQVAKTAILRANAIPPLIDCLQKDQPRNRENAAAILLCLCKRDTEKLISIGRLGAVVPLMELSRDGTERAKRKANSLLELLRKSSRKLGSL"}, "B3": {"name": "HA-PUB10 (C249A) (protein)", "chain": "MAGGAITPDSLIGLIAEINEIPGNFGLFKKDCSDLARRVGLLTHLIEEIRDSSPPSESDASSSLNSHECDWWSDLVVGLQAAKRLLSSATSFQARESSDGAAKRISFQFQCVTWKLEKALGDLTYDRYDISDEVREQVELARLQLRRAMQRYGSLNSKKFSSGLSEPMEKDASSNRKVIEKLESIPETVHSLSDEKKFESPPPWKSSSVSLAFFLSKDGDDERLEKAVTENSDDSQKSDNLTIPEDFLAPISLELMKDPAIVSTGQTYERSFIQRWIDCGNLSCPKTQQKLENFTLTPNYVLRSLISQWCTKHNIEQPGGYMNGRTKNSDGSFRDLSGDMSAIRALVCKLSSQSIEDRRTAVSEIRSLSKRSTDNRILIAEAGAIPVLVKLLTSDGDTETQENAVTCILNLSIYEHNKELIMLAGAVTSIVLVLRAGSMEARENAAATLFSLSLADENKIIIGASGAIMALVDLLQYGSVRGKKDAATALFNLCIYQGNKGRAVRAGIVKPLVKMLTDSSSERMADEALTILSVLASNQVAKTAILRANAIPPLIDCLQKDQPRNRENAAAILLCLCKRDTEKLISIGRLGAVVPLMELSRDGTERAKRKANSLLELLRKSSRKLGSL"}, "B4": {"name": "MBP-PUB10 (C249A)-6myc (protein)", "chain": "MAGGAITPDSLIGLIAEINEIPGNFGLFKKDCSDLARRVGLLTHLIEEIRDSSPPSESDASSSLNSHECDWWSDLVVGLQAAKRLLSSATSFQARESSDGAAKRISFQFQCVTWKLEKALGDLTYDRYDISDEVREQVELARLQLRRAMQRYGSLNSKKFSSGLSEPMEKDASSNRKVIEKLESIPETVHSLSDEKKFESPPPWKSSSVSLAFFLSKDGDDERLEKAVTENSDDSQKSDNLTIPEDFLAPISLELMKDPAIVSTGQTYERSFIQRWIDCGNLSCPKTQQKLENFTLTPNYVLRSLISQWCTKHNIEQPGGYMNGRTKNSDGSFRDLSGDMSAIRALVCKLSSQSIEDRRTAVSEIRSLSKRSTDNRILIAEAGAIPVLVKLLTSDGDTETQENAVTCILNLSIYEHNKELIMLAGAVTSIVLVLRAGSMEARENAAATLFSLSLADENKIIIGASGAIMALVDLLQYGSVRGKKDAATALFNLCIYQGNKGRAVRAGIVKPLVKMLTDSSSERMADEALTILSVLASNQVAKTAILRANAIPPLIDCLQKDQPRNRENAAAILLCLCKRDTEKLISIGRLGAVVPLMELSRDGTERAKRKANSLLELLRKSSRKLGSL"}, "B5": {"name": "MBP-PUB11-myc (protein)", "chain": "MAGGIVSPASLLDLIADIVEIPLNTGMFKKDCADLTRRVCLLTHLLEEIRDSTPIDSAASSSSENDWWSDLVVGLQAAKRLLSTARFQARDSSDGAAKRISFQFQCVTWKLEKALSNLPYDLYDISDEVGEQVELARSQLRRAMQRYGSLNSNKFSSALSEPMERDGFSNVIKIKAEEKLESVSETLHFGEEEEKQSSPPLRRSSSISLAYYLSKDADTDRLDKMVNKNTDESKKSDKLTIPVDFLCPVSLELMKDPVIVATGQTYERAYIQRWIDCGNLTCPKTQQKLENFTLTPNYVLRSLISRWCAEHNIEQPAGYINGRTKNSGDMSVIRALVQRLSSRSTEDRRNAVSEIRSLSKRSTDNRILIAEAGAIPVLVNLLTSEDVATQENAITCVLNLSIYENNKELIMFAGAVTSIVQVLRAGTMEARENAAATLFSLSLADENKIIIGGSGAIPALVDLLENGTPRGKKDAATALFNLCIYHGNKGRAVRAGIVTALVKMLSDSTRHRMVDEALTILSVLANNQDAKSAIVKANTLPALIGILQTDQTRNRENAAAILLSLCKRDTEKLITIGRLGAVVPLMDLSKNGTERGKRKAISLLELLRKACQ"}}, "key": {"His-AtUBC2, P42745": {"target": "T1, His-AtUBC2, P42745", "T1 chain": "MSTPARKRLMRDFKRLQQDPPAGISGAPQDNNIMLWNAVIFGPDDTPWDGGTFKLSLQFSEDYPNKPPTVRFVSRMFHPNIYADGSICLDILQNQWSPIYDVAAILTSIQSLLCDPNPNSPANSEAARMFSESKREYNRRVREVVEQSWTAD"}, "His-AtUBC36, Q9FZ48": {"target": "T2, His-AtUBC36, Q9FZ48", "T2 chain": "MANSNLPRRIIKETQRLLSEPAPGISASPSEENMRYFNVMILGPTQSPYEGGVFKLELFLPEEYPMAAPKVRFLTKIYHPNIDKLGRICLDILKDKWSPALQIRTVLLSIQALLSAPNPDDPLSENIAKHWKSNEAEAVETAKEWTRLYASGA"}, "His-AtUBC31": {"target": "T3, His-AtUBC31", "T3 sequence (Q9C8X7 1-154, looked up)": "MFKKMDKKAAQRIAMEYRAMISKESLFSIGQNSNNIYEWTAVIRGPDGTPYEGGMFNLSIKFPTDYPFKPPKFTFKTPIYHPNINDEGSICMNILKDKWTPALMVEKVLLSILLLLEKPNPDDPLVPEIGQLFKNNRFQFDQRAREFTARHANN"}}, "data": [{"protein": "B1", "values": [{"measurement": "myc-MYC2 protein level in double transgenic Arabidopsis seedlings (Western blot)", "setting": "myc-MYC2, Q39204", "value": "induced expression of HA-PUB10 clearly resulted in a decrease in myc-MYC2 level"}]}, {"protein": "B2", "values": [{"measurement": "in vitro auto-ubiquitination of PUB10 with the UBC as E2", "setting": "His-AtUBC2, P42745", "value": "Each of these 4 UBCs was capable of supporting auto-ubiquitination of PUB10 and PUB11 in vitro although with varying degrees of activity"}, {"measurement": "in vitro auto-ubiquitination of PUB10 with the UBC as E2", "setting": "His-AtUBC36, Q9FZ48", "value": "Each of these 4 UBCs was capable of supporting auto-ubiquitination of PUB10 and PUB11 in vitro although with varying degrees of activity"}, {"measurement": "in vitro auto-ubiquitination of PUB10 with the UBC as E2", "setting": "His-AtUBC8, P35131", "value": "Each of these 4 UBCs was capable of supporting auto-ubiquitination of PUB10 and PUB11 in vitro although with varying degrees of activity ... The highest activity was obtained when UBC8 served as the ubiquitin conjugating enzyme"}, {"measurement": "in vitro auto-ubiquitination of PUB10 with the UBC as E2", "setting": "His-AtUBC31", "value": "Each of these 4 UBCs was capable of supporting auto-ubiquitination of PUB10 and PUB11 in vitro although with varying degrees of activity"}, {"measurement": "in vitro ubiquitination of MYC2 (E1, AtUBC8 as E2, His-ubiquitin; Western blot)", "setting": "GST-MYC2-HA, Q39204", "value": "MYC2 was indeed poly-ubiquitinated by PUB10 in vitro"}]}, {"protein": "B3", "values": [{"measurement": "myc-MYC2 protein level in double transgenic Arabidopsis seedlings (Western blot)", "setting": "myc-MYC2, Q39204", "value": "induced expression of PUB10 (C249A) mutant protein resulted in an increase of MYC2 level"}]}, {"protein": "B4", "values": [{"measurement": "in vitro ubiquitination of MYC2 (E1, AtUBC8 as E2, His-ubiquitin; Western blot)", "setting": "GST-MYC2-HA, Q39204", "value": "The ubiquitination activity was greatly reduced when cysteine 249 was mutated to alanine 249"}]}, {"protein": "B5", "values": [{"measurement": "in vitro auto-ubiquitination of PUB11 with the UBC as E2", "setting": "His-AtUBC2, P42745", "value": "Each of these 4 UBCs was capable of supporting auto-ubiquitination of PUB10 and PUB11 in vitro although with varying degrees of activity"}, {"measurement": "in vitro auto-ubiquitination of PUB11 with the UBC as E2", "setting": "His-AtUBC36, Q9FZ48", "value": "Each of these 4 UBCs was capable of supporting auto-ubiquitination of PUB10 and PUB11 in vitro although with varying degrees of activity"}, {"measurement": "in vitro auto-ubiquitination of PUB11 with the UBC as E2", "setting": "His-AtUBC8, P35131", "value": "Each of these 4 UBCs was capable of supporting auto-ubiquitination of PUB10 and PUB11 in vitro although with varying degrees of activity ... The highest activity was obtained when UBC8 served as the ubiquitin conjugating enzyme"}, {"measurement": "in vitro auto-ubiquitination of PUB11 with the UBC as E2", "setting": "His-AtUBC31", "value": "Each of these 4 UBCs was capable of supporting auto-ubiquitination of PUB10 and PUB11 in vitro although with varying degrees of activity"}, {"measurement": "in vitro ubiquitination of MYC2 (E1, E2, Ub; Western blot)", "setting": "GST-MYC2-HA, Q39204", "value": "MYC2 is a substrate of PUB11 E3 ligase"}]}]}
